The values that follow come from publication PMC4520625.

The target in test [1] is galectin-3 carbohydrate recognition domain (CRD) obtained by proteolytic truncation (human). In words: ITC. A general note: In ITC the heat of successive injections is recorded.
Test [2] concerns the target full-length human galectin-3 (human) (UniProt P17931). In words: ITC.

full-length human galectin-3 (human), sequence (P17931 whole entry): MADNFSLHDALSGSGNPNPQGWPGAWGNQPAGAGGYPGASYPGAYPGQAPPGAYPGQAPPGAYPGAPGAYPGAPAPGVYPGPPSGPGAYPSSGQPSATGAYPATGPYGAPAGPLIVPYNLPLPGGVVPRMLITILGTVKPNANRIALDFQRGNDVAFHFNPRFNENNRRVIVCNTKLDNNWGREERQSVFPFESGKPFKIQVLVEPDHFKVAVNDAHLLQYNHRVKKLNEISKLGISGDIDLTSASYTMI

Turning to “MUC1-Ser5 glycopeptide carrying the TF antigen”, the dH in test [1] is -4.11 kcal/mol; in test [2], -1.33 kcal/mol.
